Source: patent US20120027773A1 (AVEO PHARMACEUTICALS, published 2012)

Tests used:
[1] = target: T1, human wild-type RON (cell surface) (human, UniProt Q04912 25-1400); test: cell-based or functional assay
[2] = target: T1, human wild-type RON (cell surface); test: cell-based or functional assay; remark: listed apart in the source
[3] = target: T1, human wild-type RON (cell surface); test: FACS titration on PC3 cells, 4 C
Protocol: (§1) Binding to cell surface human wild-type RON and the delta 160 RON variant by antibodies 29B06 and 07F01 was measured at 4° C., using Fluorescence Activated Cell Sorting (FACS). PC3 cells expressing the human wild-type RON, and HT29 cells expressing the delta 160 variant, were harvested using cell dissociation buffer (Invitrogen), washed twice with FACS buffer (PBS with 0.5% BSA), and treated for 10 minutes with Cyto Q Antibody diluent and FC receptor block (Innovex Biosciences, Richmond, Calif.). Purified antibodies were diluted in FACS buffer over a concentration range from 0.02 nM to 40 nM. Cells were incubated with 100 μl of antibody for one hour, washed with FACS buffer three times, and incubated for 45 minutes with goat anti-mouse PE-conjugated antibody (Jackson ImmunoResearch Laboratories, West Grove, Pa.). Cells were washed three times with FACS buffer, resuspended in 300 μl of FACS buffer, and analyzed using a Beckman Coulter Cytomics FC 500 FACS instrument.

[4] = target: T2, delta 160 RON variant (cell surface) (human, UniProt Q04912 25-1400); test: FACS titration on HT29 cells, 4 C
T2 construct: whole, on cells; Splice variant; also called delta 160 variant
Protocol: as §1

[5] = target: T1, human wild-type RON (cell surface); test: FACS, 10 ug/ml antibody, PC3 cells, 4 C
Protocol: Binding to cell surface wild-type RON and delta 160 RON at 4° C. was determined for antibodies 07F01, 12B11, 17F06, 18H09, and 29B06, using FACS. Cells expressing wild-type RON (PC3), and cells expressing delta 160 RON (HT-29), were harvested using cell dissociation buffer (Invitrogen), washed twice with FACS buffer (0.5% BSA PBS) and treated with CytoQ Antibody diluent and FC receptor block (Innovex). Purified antibodies were diluted at a concentration of 10 μg/ml, in FACS buffer. Cells were incubated with 100 μl of antibody mix for one hour, washed with FACS buffer three times, and incubated for 45 minutes with goat anti-mouse PE conjugated antibody (Jackson Immunoresearch Laboratories). Cells were washed three times with FACS buffer, resuspended in 300 μl of FACS buffer and analyzed using a Beckman Coulter Cytomics FC 500 FACS instrument.

[6] = target: T3, recombinant human RON-ECD/mFc fusion protein (human, UniProt Q04912 25-957); test: SPR, Ab captured on anti-mouse IgG, 25 C, AVG
T3 construct: extracellular domain; also called rhRON ECD/mFc; rhRon ECD/mFc; not shown: THXmFC: Thrombin/His tag/Factor Xa-AJ mouse IgG-Fc
Protocol: The binding affinities and kinetics of binding of antibodies 07F01, 29B06, 17F06, 18H09, and 12B11 to recombinant human RON-ECD/mFc fusion protein (rhRON ECD/mFc) and recombinant human RON SEMA and PSI domains (rhRON SEMA+PSI) (R&D Systems, Inc., Minneapolis, Minn.) were measured by surface plasmon resonance, using a Biacore T100 instrument (GE Healthcare, Piscataway, N.J.).
Rabbit anti-mouse IgGs (GE Healthcare) were immobilized on carboxymethylated dextran CM4 sensor chips (GE Healthcare) by amine coupling, according to a standard protocol. Analyses were performed at 25° C. and 37° C., using PBS containing 0.05% surfactant P20 as running buffer. The antibodies were captured in individual flow cells at a flow rate of 10 μl/min. Injection time was varied for each antibody to yield an Rmax between 30 and 60 RU. 250 μg/mL mouse Fc were injected at 30 μl/min for 120 seconds to block non-specific binding of antibodies to Fc portion of the protein when needed. Buffer, rhRon ECD/mFc or rhRON SEMA+PSI diluted in running buffer was injected sequentially over a reference surface (no antibody captured) and the active surface (antibody to be tested) for 300 seconds at 60 μl/minute. The dissociation phase was monitored for up to 3600 seconds. The surface was then regenerated with two 60-second injections of 10 mM Glycine-HCl, pH 1.7, at a flow rate of 60 μl/min. The rhRON ECD/mFc or rhRON SEMA+PSI concentration range tested was 0.625 nM to 20 nM.
Kinetic parameters were determined using the kinetic function of the BIAevaluation software (GE Healthcare) with double reference subtraction. Kinetic parameters for each antibody, kₐ (association rate constant), kd (dissociation rate constant) and KD (equilibrium dissociation constant) were determined.

[7] = target: T4, recombinant human RON SEMA and PSI domains (human, UniProt Q04912 25-571); test: ECL competition, MSP binding to coated hRON SEMA+PSI; competitor MSP; average n=3
T4 construct: domain: SEMA+PSI; Commercial protein (R&D Systems); also called rhRON SEMA+PSI; hRON SEMA+PSI
Protocol: The biochemical neutralization assay measures inhibition of MSP binding to hRON by antibodies in hybridoma supernatants, using electrochemiluminescence (ECL). MA2400 96-well high binding plates (Meso Scale Discovery) were coated with 25 μl of 0.42 μg/mL hRON SEMA+PSI (an N-terminal portion of the ECD of hRON; R&D Systems) in PBS for one hour at room temperature with agitation. The plates were washed four times with PBS+0.1% Tween-20 (PBST), and blocked with 150 μl of charcoal-stripped fetal bovine serum (FBS) (Gibco). The hybridoma supernatant were added and incubated for 45 minutes at room temperature. After incubation, 5 μl of MSP (3 μg/mL) in charcoal stripped FBS was added to each well, and incubated for 45 minutes. The plate was washed four times with PBST, and 25 μl of 1 μg/mL biotinylated anti-MSP antibody (R&D Systems) was added to the plates for one hour at room temperature with agitation. The plates were washed four times with PBST, and incubated with 25 μl of 1 μg/mL ST-streptavidin (Meso Scale Discovery) for one hour at room temperature with agitation. The plates were washed four times with PBST, and 150 μl read buffer (Meso Scale Discovery) was added to each well before the plates were analyzed on a Sector Imager 2400 (Meso Scale Discovery) instrument. Antibodies 07F01, 18H09 and 29B06 each blocked MSP binding to hRON SEMA+PSI in this neutralization assay.
Antibodies 07F01, 12B11, 17F06, 18H09, and 29B06 were tested for inhibition of MSP binding to hRON SEMA+PSI, as measured by electrochemiluminescence (ECL) assay as described in Example 3. The antibodies (concentration range: 0.006-10 μg/mL) were incubated for 45 minutes at room temperature.

Mean IC50 (nM), inhibition of MSP-dependent ERK phosphorylation, T47D cells [1] | Percent Inhibition of MSP-induced HPAF-II cell migration, antibody 2 ug/ml [2] | Kd [3] | Kd [4] | PC3 % cell surface binding [5] | Kd [6] | koff [6] | kon [6] | IC50 [7] | Binder
0.07 nM | 95.6% | 0.032 nM | 0.024 nM | 99.3% | 0.23 nM | 9.3e-05 s⁻¹ | 400000 M⁻¹ s⁻¹ | 0.26 nM | 07F01 (antibody, mouse IgG1, kappa, V domains shown, Murine hybridoma monoclonal, IgG1/kappa; also called mu07F01; antibody 07F01) VH: EVKLLESGGGLVQPGGSLKLSCAASGFDFSRHWMSWVRLAPGKGLEWIAEINPDSRTINYTPSLKEKFIISRDNAKNSLFLQMNRVRSEDTALYYCARRVRIHYYGAMDCWGQGTSVTVSS VL: DIVLTQSQKIVSTSVGARVSVTCKASQNVGSSLVWYQQKPGQSPKTLIYSASFRYSGVPDRFTGSGSGTDFTLTISNVQSEDLADYFCQQYNNYPLTFGAGTKLELKR
0.44 nM | 96.8% | 0.133 nM | 0.146 nM | 99.1% | 0.65 nM | 0.00013 s⁻¹ | 200000 M⁻¹ s⁻¹ | 1.11 nM | 29B06 (antibody, mouse IgG1, kappa, Murine hybridoma monoclonal, IgG1/kappa; also called mu29B06; antibody 29B06) heavy: EVQLQESGPSLVKPSQTLSLTCSVTGDSITSGYWNWIRKFPGNKLEYMGYISYSGKTYYNPSLKSRISITRDTSKNHYYLQLISVTAEDTATYYCARSKYDYAMDYWGQGTSVTVSSAKTTPPSVYPLAPGSAAQTNSMVTLGCLVKGYFPEPVTVTWNSGSLSSGVHTFPAVLQSDLYTLSSSVTVPSSTWPSETVTCNVAHPASSTKVDKKIVPRDCGCKPCICTVPEVSSVFIFPPKPKDVLTITLTPKVTCVVVDISKDDPEVQFSWFVDDVEVHTAQTQPREEQFNSTFRSVSELPIMHQDWLNGKEFKCRVNSAAFPAPIEKTISKTKGRPKAPQVYTIPPPKEQMAKDKVSLTCMITDFFPEDITVEWQWNGQPAENYKNTQPIMDTDGSYFVYSKLNVQKSNWEAGNTFTCSVLHEGLHNHHTEKSLSHSPGK light: not shown
